# Experimental data: US20080102459A1, “Method of Screening Antiobesity Agents” (ASTELLAS PHARMA INC., priority 2004, published 2008)
# B1: AGF protein: angiopoietin-related growth factor protein, species not stated in Example 16 (protein, UniProt Q8NI99 21-470, looked up)
# Angiopoietin-related protein 6: RAGAPRCTYTFVLPPQKFTGAVCWSGPASTRATPEAANASELAALRMRVGRHEELLRELQRLAAADGAVAGEVRALRKESRGLSARLGQLRAQLQHEAGPGAGPGADLGAEPAAALALLGERVLNASAEAQRAAARFHQLDVKFRELAQLVTQQSSLIARLERLCPGGAGGQQQVLPPPPLVPVVPVRLVGSTSDTSRMLDPAPEPQRDQTQRQQEPMASPMPAGHPAVPTKPVGPWQDCAEARQAGHEQSGVYELRVGRHVVSVWCEQQLEGGGWTVIQRRQDGSVNFFTTWQHYKAGFGRPDGEYWLGLEPVYQLTSRGDHELLVLLEDWGGRGARAHYDGFSLEPESDHYRLRLGQYHGDAGDSLSWHNDKPFSTVDRDRDSYSGNCALYQRGGWWYHACAHSNLNGVWHHGGHYRSRYQDGVYWAEFRGGAYSLRKAAMLIRPLKL
# B2: human AGF protein: FLAG-tagged recombinant human angiopoietin-related growth factor purified from HEK293 culture supernatant (protein)
# chain: B1 Angiopoietin-related protein 6
# modifications: left off: small tags and cut ends
# notes: FLAG-tagged recombinant human angiopoietin-related growth factor purified from HEK293 culture supernatant
# B3: mouse AGF protein: FLAG-tagged recombinant mouse angiopoietin-related growth factor purified from HEK293 culture supernatant (protein)
# chain: ARCRVTLVLSPQKATSAVCRSSEATQDSELATLRMRLGRHEELLRALQRRAAEGGALADEVRALREHSLTLNTRLGQLRAQLQQEARAEPDLGAEPAAALGLLAERALDAEAEARRTTARLQQLDAQLREHAQLMSQHSSLLGRLQRACAGPERGQQQVLPLPLAPLVPLSLVGSASNTSRRLDQTPEHQREQSLRQQGPPSSLLPTGHLAVPTRPVGPWRDCAEAHGAGHWQSGVYDLRLGRRVVAVWCEQQQEGGGWTVIQRRQDGSVNFFTNWQHYKAGFGRPEGEYWLGLEPVHQVTSRGDHELLILLEDWGGRAARAHYDSFSLEPESDHYRLRLGQYHGDAGDSLSWHNDKPFSTVDRDRDSYSGNCALYHRGGWWYHACAHSNLNGVWYHGGHYRSRYQDGVYWAEFRGGAYSLKKAVMLTRLVRL
# modifications: left off: small tags and cut ends
# notes: FLAG-tagged recombinant mouse angiopoietin-related growth factor purified from HEK293 culture supernatant
# Key:
# AGF gene = assay: Amount of AGF gene expressed in C2C12 cells by quantitative PCR; assay type: cell-based, mouse; settings: 48 hours, compensated by cyclophilin, insulin at 100 nmol/L
# Experimental: C2C12 cells (ATCC No.: CRL-1772) were added to a 24-well collagen-coated plate (ASAHI TECHNO GLASS) to become 20000 cells per well, and cultured with a Dulbecco's modified Eagle's medium (DMEM) supplemented with 15% fetal bovine serum, for one day. After insulin (Biomedical Technologies Inc) was added to the medium to a final concentration of 100 nmol/L, or after the medium was changed to the culture supernatant of 3T3-L1 prepared in Example 11, the C2C12 cells were cultured for 48 hours. As a control, the C2C12 cells were cultured with DMEM supplemented with 15% fetal bovine serum for 48 hours, without such treatments. After the cultivation, total RNAs were prepared from treated cells using an RNeasy Mini Kit (Qiagen) in accordance with a protocol attached thereto, and 500 ng thereof was converted to cDNAs using a Thermoscript RT-PCR system kit (Invitrogen).
# Amounts of AGF gene expressed in C2C12 cells were measured by a quantitative PCR, using DNAs of SEQ ID NOS: 29 and 30 as primers for amplifying the mouse AGF, cDNAs (derived from culture supernatants of C2C12 cells) prepared in Example 12 as a template, and a sequence detector (ABI PRISM 7900; Applied Biosystems). […]
# MAPK p38 = assay: MAPK phosphorylation by AGF stimulation, Western blotting, C2C12 cells differentiated into muscle; assay type: cell-based, mouse; settings: AGF protein 1 μg/mL, 10 minutes, versus PBS
# Experimental: (§1) C2C12 cells were cultured with a growth medium (DMEM supplemented with 10% FCS) in a type I collagen coated 12-well plate to become confluent. After the medium was changed to a differentiation medium (DMEM supplemented with 2% horse serum), the C2C12 cells were cultured for 7 days to differentiate them into muscle. The cells were cultured in a serum-free medium containing 1% BSA, and the medium was changed to the same medium. The AGF protein (final concentration=1 μg/mL) or an equal volume of PBS was added. After 10 minutes, the medium was remove by suction, and the reaction was stopped by adding 50 μL of a solution for cell lysis [50 mmol/L HEPES (pH7.2), 1% Triton X-100, 10% glycerol, 10 mmol/L Na4P2O7, 100 mmol/L NaF, 100 μmol/L Na3VO4, 40 mmol/L EDTA, 50 μg/mL aprotinin, 1 mmol/L phenylmethyl sulfonyl fluoride (PMSF), 0.1 mmol/L leupeptin, and 25 μmol/L pepstatin A] to the cells. To each cell lysate sample obtained, an SDS-sample buffer [20% glycerol, 130 mmol/L Tris-HCl (pH6.8), 10% 2-mercaptoethanol, 6% SDS, and 0.2 mg/mL bromphenol blue] was added, and each sample was subjected to SDS-PAGE and blotted to a polyvinylidene fluoride (PVDF) membrane. Western blotting was carried out, using an anti-phosphorylated MAPK p38 antibody (Cell signaling #9211), an anti-phosphorylated MAPK p42/p44 antibody (Cell signaling #9101), an anti-MAPK p38 antibody (Cell signaling #9212), or an anti-MAPK p42/44 antibody (Cell signaling #9102) as the first antibody and an HRP-labeled anti-mouse IgG antibody (Example 9) as the second antibody, to detect a phosphorylation of MAPK p38, MAPK p42, and MAPK p44. The result of Western blotting was scanned using a scanner, and a concentration of each phosphorylated band was quantitated by an image analyzing software.
# MAPK p42 = assay: as above; assay type: cell-based, mouse; settings: AGF protein 1 μg/mL, 10 minutes, versus PBS
# Experimental: as §1
# MAPK p44 = assay: as above; assay type: cell-based, mouse; settings: AGF protein 1 μg/mL, 10 minutes, versus PBS
# Experimental: as §1
# MAPK [1] = assay: MAPK phosphorylation by AGF stimulation in HUVEC; assay type: cell-based, human; settings: HUVEC instead of C2C12
# MAPK [2] = assay: MAPK phosphorylation by AGF stimulation in ATDC5; assay type: cell-based; settings: ATDC5 instead of C2C12
# ATDC5 cells = assay: Binding of AGF protein to cell line, flow cytometry; settings: protein 10 μg/mL, 4° C., 30 minutes; PI negative cells
# Experimental: ATDC5 cells were cultured in a growth medium (DMEM/F12 with 5% FCS) to become subconfluent, and removed from a plate by a cell scraper. The cells were washed twice with an FCM buffer (0.1% BSA/1 mmol/L CaCl2/1 mmol/L MgCl2/PBS), and reacted with or without the mouse AGF protein or the human AGF protein at 4° C. for 30 minutes, at a final concentration of 10 μg/mL of the protein. The cells were washed with the FCM buffer, and reacted with fluorescein isothiocyanate (FITC)-labeled M2 antibody (Sigma) at 4° C. for 30 minutes, at a final concentration of 10 μg/mL. The cells were washed three times with the FCM buffer, and propidium iodide (PI) was added to the cells at a final concentration of 1 μg/mL, to stain death cells. The cells were analyzed using a flow cytometer (Cytomics FC 500; Beckman Coulter, Inc.), and an FITC intensity derived from PI negative cells other than death cells was measured.
# Since the FLAG sequence was added to the human AGF protein and the mouse AGF protein, when the M2 antibody specific to the FLAG sequence was used, the FITC-labeled M2 antibody bound to the AGF protein which bound to cells, and thus, the fluorescence intensity of cells to which the AGF protein bound was increased. […]
molecule,measurement,setting,value
insulin,induction of AGF expression in comparison with untreated control,AGF gene,approximately 6 times
B1,increase of phosphorylation in phosphorylated MAPK p38,MAPK p38,1.6 times
same,increase of phosphorylation in phosphorylated MAPK p42,MAPK p42,3.4 times
same,increase of phosphorylation in phosphorylated MAPK p44,MAPK p44,4.3 times
same,phosphorylation of MAPK,MAPK [1],promoted
same,phosphorylation of MAPK,MAPK [2],promoted
B2,increase of the fluorescence intensity (FITC-labeled M2 antibody) of cells,ATDC5 cells,8.1 times
B3,increase of the fluorescence intensity (FITC-labeled M2 antibody) of cells,ATDC5 cells,1.5 times
